Assay results as given in PMC6996315.

Target: human α3β2 nicotinic acetylcholine receptor (human) (UniProt P32297)
Sequence of UniProt P32297 (P32297 32-505, chain 1 of 2): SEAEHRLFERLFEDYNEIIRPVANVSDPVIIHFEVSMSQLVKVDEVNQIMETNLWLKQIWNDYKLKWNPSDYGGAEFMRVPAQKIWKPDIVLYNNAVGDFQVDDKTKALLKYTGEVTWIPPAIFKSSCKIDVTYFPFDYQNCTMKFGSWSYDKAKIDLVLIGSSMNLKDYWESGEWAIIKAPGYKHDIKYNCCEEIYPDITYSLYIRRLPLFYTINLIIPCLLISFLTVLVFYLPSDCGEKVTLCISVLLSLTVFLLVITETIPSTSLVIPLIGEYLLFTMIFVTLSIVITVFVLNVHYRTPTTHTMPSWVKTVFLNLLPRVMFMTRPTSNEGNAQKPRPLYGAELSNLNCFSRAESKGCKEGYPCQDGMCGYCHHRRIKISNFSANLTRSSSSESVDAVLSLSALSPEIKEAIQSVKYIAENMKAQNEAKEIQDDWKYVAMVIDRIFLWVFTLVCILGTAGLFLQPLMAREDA
Sequence of UniProt P32297 (P17787 26-502, chain 2 of 2, further chain): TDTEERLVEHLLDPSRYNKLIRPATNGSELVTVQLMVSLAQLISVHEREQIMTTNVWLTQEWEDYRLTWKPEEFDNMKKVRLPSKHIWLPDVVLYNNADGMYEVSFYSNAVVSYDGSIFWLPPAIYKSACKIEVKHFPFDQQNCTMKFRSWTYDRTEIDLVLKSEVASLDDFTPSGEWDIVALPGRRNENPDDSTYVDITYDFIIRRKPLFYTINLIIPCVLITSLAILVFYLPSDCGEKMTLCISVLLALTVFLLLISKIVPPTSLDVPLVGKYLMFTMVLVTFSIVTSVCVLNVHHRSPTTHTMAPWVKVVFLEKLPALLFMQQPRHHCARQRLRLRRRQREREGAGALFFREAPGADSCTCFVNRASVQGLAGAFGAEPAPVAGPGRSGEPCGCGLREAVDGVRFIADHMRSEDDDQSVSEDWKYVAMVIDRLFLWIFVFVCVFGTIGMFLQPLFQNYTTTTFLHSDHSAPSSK

Substance: drysdalin (natural protein)
- inhibition of ACh‐evoked peak current at 30 nmol/L drysdalin, Xenopus oocytes: 13%
